Changes are numbered by the printed parent chain. Numbers in names are those of the source.
B1: E53 (Erythrobacter longus; F191Y) (protein)
chain: MTDTPFIRPDMKAFLEAIAAMAGPTLAEMTLEEARASYVALHGMADRPARELAVIRNLSCPGPAGDIPLRLYDARESREAGPVITFYHGGGFVIGDLDTHHNLCTEIAALMDLPVVAVDYRLAPEHPFPAAIEDCEAATRWVASSPSELGRTASGVIPIGDSAGGNATIVVSQLLGAKPADVPVVLQVPIYPLASDAVGSASLEAFAEGFVLTKASIEFFDTAYKADRADPRGFPILGDHTAAPPTIVATASLDPIRDSGRDYAKALVEAGRDVVYLEMEGVTHSFTNIRAAVPSTQGDLERIIAAMKMMLGTA
notes: full length, 314 residues; N-terminal His6-SUMO tag (pSMT3) removed with Ulp1; E. coli BL21(DE3); monomer
B2: E53 (Erythrobacter longus; N166A) (protein)
chain: B1 chain with N166A, Y191F
notes: as for B1
B3: E53 (Erythrobacter longus; A167L) (protein)
chain: B1 chain with A167L, Y191F
notes: as for B1
B4: E53 (Erythrobacter longus) (protein)
chain: B1 chain with Y191F
notes: as for B1
B5: E53 (Erythrobacter longus; S216A) (protein)
chain: B1 chain with Y191F, S216A
notes: as for B1
B6: E53 (Erythrobacter longus; V211A) (protein)
chain: B1 chain with Y191F, V211A
notes: as for B1
B7: E53 (Erythrobacter longus; I256L) (protein)
chain: B1 chain with Y191F, I256L
notes: as for B1

Key:
[1] = target: T1, E53 (Erythrobacter longus, UniProt A0A074MDU6, I256L); assay: X-ray crystal structure, substrate soak; format: binding; details: pH 6.5 crystals; active site
T1 construct: gene EH31_02760; full length, 314 residues; N-terminal His6-SUMO tag (pSMT3) removed with Ulp1; E. coli BL21(DE3); monomer

[2] = target: T2, E53 (Erythrobacter longus, UniProt A0A074MDU6, S285G); assay: X-ray crystal structure, substrate soak; format: binding; details: pH 6.5 crystals; active site
T2 construct: gene EH31_02760; full length, 314 residues; N-terminal His6-SUMO tag (pSMT3) removed with Ulp1; E. coli BL21(DE3); monomer

[3] = target: T3, E53 (Erythrobacter longus, UniProt A0A074MDU6); assay: X-ray crystal structure, substrate soak; format: binding; details: pH 6.5 crystals; active site
T3 construct: gene EH31_02760; full length, 314 residues; N-terminal His6-SUMO tag (pSMT3) removed with Ulp1; E. coli BL21(DE3); monomer

[4] = substrate: CCCC(=O)Oc1ccc([N+](=O)[O-])cc1; assay: purified protein; format: biochemical, Erythrobacter longus; details: Tris-HCl pH 9.0 (also pH 7.0), 40 °C, 0.05-4.00 mM substrate

T3 sequence (A0A074MDU6 entry or part of it): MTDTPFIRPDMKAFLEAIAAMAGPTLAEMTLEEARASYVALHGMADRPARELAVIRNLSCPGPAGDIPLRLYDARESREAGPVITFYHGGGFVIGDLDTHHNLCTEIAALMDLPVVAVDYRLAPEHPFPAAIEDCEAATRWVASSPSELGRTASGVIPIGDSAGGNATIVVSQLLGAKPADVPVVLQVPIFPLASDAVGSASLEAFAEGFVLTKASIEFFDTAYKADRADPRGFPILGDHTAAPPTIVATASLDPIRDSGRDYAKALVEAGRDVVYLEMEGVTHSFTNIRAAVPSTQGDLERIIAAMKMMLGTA
T2 sequence (A0A074MDU6 entry or part of it S285G): as the sequence (A0A074MDU6 entry or part of it) above, with S285G counted along it
T1 sequence (A0A074MDU6 entry or part of it I256L): as the sequence (A0A074MDU6 entry or part of it) above, with I256L counted along it

Molecule	Km [4]	other results
CCCCCC(=O)Oc1ccc([N+](=O)[O-])cc1 [C6, p-NP hexanoate]	–	X-ray crystal structure, substrate soak [1]: observed in the crystal structures of E53, I256L, and S285G; X-ray crystal structure, substrate soak [2]: observed in the crystal structures of E53, I256L, and S285G; X-ray crystal structure, substrate soak [3]: observed in the crystal structures of E53, I256L, and S285G
B1	210 ± 20 µM	–
B2	460 ± 40 µM	–
B3	150 ± 10 µM	–
B4	330 ± 30 µM	–
B5	420 ± 30 µM	–
B6	520 ± 30 µM	–
B7	230 ± 20 µM	–
